# Results taken from patent US8859223.
# Key:
# EI(Thi)(Thi)-(Nva)AHF = target: T1, EI(Thi)(Thi)-(Nva)AHF
# T1 chain: EIXXXAHF
# DETL-DAHF = target: T2, DETL-DAHF
# T2 chain: DETLDAHF
# EVNF-EVEF = target: T3, EVNF-EVEF
# T3 chain: EVNFEVEF
# ASNL-DAHF = target: T4, ASNL-DAHF
# T4 chain: ASNLDAHF
# EVNL-DAEF = target: T5, EVNL-DAEF
# T5 chain: EVNLDAEF
# EIDL-SSHD = target: T6, EIDL-SSHD
# T6 chain: EIDLSSHD
# EVNL-SSHD = target: T7, EVNL-SSHD
# T7 chain: EVNLSSHD
# APSL-DAHF = target: T8, APSL-DAHF
# T8 chain: APSLDAHF
# EIDL-MVLD = target: T9, EIDL-MVLD
# T9 chain: EIDLMVLD
# EVNL-DAHF = target: T10, EVNL-DAHF
# T10 chain: EVNLDAHF
protein,measurement,setting,value
BACE enzyme (beta-secretase) (protein) ETDEEPEEPGRRGSFVEMVDNLRGKSGQGYYVEMTVGSPPQTLNILVDTGSSNFAVGAAPHPFLHRYYQRQLSSTYRDLRKGVYVPYTQGKWEGELGTDLVSIPHGPNVTVRANIAAITESDKFFINGSNWEGILGLAYAEIARPDDSLEPFFDSLVKQTHVPNLFSLQLCGAGFPLNQSEVLASVGGSMIIGGIDHSLYTGSLWYTPIRREWYYEVIIVRVEINGQDLKMDCKEYNYDKSIVDSGTTNLRLPKKVFEAAVKSIKAASSTEKFPDGFWLGEQLVCWQAGTTPWNIFPVISLYLMGEVTNQSFRITILPQQYLRPVEDVATSQDDCYKFAISQSSTGTVMGAVIMEGFYVVFDRARKRIGFAVSACHVHDEFRTAAVEGPFVTLDMEDCGYNIPQTDESTLMTIAY,Percent Cleavage after 10 hr Incubation with BACE,EI(Thi)(Thi)-(Nva)AHF,25%
same,Percent Cleavage after 10 hr Incubation with BACE,DETL-DAHF,1%
same,Percent Cleavage after 10 hr Incubation with BACE,EVNF-EVEF,85%
same,Percent Cleavage after 10 hr Incubation with BACE,ASNL-DAHF,Not Detected
same,Percent Cleavage after 10 hr Incubation with BACE,EVNL-DAEF,50%
same,Percent Cleavage after 10 hr Incubation with BACE,EIDL-SSHD,5%
same,Percent Cleavage after 10 hr Incubation with BACE,EVNL-SSHD,3.5%
same,Percent Cleavage after 10 hr Incubation with BACE,APSL-DAHF,0.5%
same,Percent Cleavage after 10 hr Incubation with BACE,EIDL-MVLD,20%
same,Percent Cleavage after 10 hr Incubation with BACE,EVNL-DAHF,50%
